From patent US20160185832A1 (University of Pennsylvania, published 2016)

How the values were obtained:
[1] = biological target: microtubule network of cultured human cells (hTERT-RPE1, 293T) (human, UniProt P68363 1-451; P07437 1-444); experiment: cell-based or functional assay
[2] = biological target: T1, pure, pre-polymerized, taxol-stabilized microtubules of bovine tubulin (Cytoskeleton) (bovine, UniProt P81947 1-451; Q6B856 1-445, limits assumed); experiment: in vitro microtubule co-sedimentation, percent of construct in the microtubule pellet (FIG. 4D)
T1 construct: Polymer of alpha/beta tubulin dimers, polymerized with GTP and stabilized with 10 µM taxol; also called MT; MTs
Method: Crude TNT T7 reaction products were diluted 1:1 in BRB80 supplemented with 1 mM GTP and 10 μM taxol. The diluted products were then incubated at 30° C. for 30 minutes in either the presence or absence of pure, pre-polymerized microtubules. Reactions were then centrifuged through a 40% sucrose cushion at 48,000×g for 30 minutes, the supernatant was collected, and the pellet washed once with warm BRB80 and resuspended in 1×SDS PAGE sample buffer. Both fractions were subjected to SDS-PAGE and transferred to nitrocellulose. The presence of tubulin in the pellets was confirmed by Ponceau staining, and GFP-tagged CEP290 constructs were detected by immunoblotting.

Sequence of microtubule network of cultured human cells (hTERT-RPE1, 293T) (P68363 whole entry, chain 1 of 2): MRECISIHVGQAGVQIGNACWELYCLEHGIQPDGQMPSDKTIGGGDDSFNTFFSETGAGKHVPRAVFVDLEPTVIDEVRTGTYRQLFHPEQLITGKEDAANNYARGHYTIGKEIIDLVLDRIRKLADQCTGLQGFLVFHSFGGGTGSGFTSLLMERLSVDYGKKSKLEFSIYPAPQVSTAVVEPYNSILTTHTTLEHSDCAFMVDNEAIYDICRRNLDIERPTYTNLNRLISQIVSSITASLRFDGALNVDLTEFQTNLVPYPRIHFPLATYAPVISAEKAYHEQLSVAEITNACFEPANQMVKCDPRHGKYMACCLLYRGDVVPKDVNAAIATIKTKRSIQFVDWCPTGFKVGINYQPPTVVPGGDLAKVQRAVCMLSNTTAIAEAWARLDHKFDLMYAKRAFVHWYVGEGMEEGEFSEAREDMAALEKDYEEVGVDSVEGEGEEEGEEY
Sequence of microtubule network of cultured human cells (hTERT-RPE1, 293T) (P07437 whole entry, chain 2 of 2): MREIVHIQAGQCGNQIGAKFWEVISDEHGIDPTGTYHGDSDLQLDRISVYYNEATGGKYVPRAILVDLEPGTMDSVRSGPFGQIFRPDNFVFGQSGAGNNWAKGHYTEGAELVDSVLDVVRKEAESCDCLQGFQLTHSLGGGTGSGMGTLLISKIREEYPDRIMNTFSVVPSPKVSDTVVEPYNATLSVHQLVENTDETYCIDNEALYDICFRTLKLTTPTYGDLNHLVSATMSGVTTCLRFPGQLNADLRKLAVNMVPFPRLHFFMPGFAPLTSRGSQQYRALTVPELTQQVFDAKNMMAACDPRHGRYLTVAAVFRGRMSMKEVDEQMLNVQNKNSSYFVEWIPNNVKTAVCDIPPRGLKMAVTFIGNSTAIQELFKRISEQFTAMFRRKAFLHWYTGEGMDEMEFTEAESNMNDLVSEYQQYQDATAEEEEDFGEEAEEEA
T1 sequence (P81947 whole entry, chain 1 of 2): as the sequence (P68363 whole entry, chain 1 of 2) above
T1 sequence (Q6B856 whole entry, chain 2 of 2): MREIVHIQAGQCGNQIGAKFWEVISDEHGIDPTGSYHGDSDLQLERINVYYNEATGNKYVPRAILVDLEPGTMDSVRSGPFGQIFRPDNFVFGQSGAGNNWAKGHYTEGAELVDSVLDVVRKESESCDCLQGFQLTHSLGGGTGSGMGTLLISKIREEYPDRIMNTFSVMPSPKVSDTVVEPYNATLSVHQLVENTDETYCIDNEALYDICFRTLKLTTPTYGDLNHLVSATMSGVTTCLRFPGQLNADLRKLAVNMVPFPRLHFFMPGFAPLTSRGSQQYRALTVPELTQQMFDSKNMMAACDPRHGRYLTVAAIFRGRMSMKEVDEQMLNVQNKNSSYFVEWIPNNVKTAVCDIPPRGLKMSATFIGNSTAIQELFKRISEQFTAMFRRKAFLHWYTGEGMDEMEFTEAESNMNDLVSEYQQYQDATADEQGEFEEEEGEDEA

Binder | percent of transfected cells with increased microtubule acetylation and bundling [1] [%] | percent associated with microtubules [2] [%] | percent of transfected hTERT-RPE1 cells with a fibrillar localization pattern [1] [%]
GFP fusion of CEP290 aa 1695-1966 (region M) (other, Also a construct without both termini; also called CEP290 region M alone; truncation M (GFP fusion); not shown: N-terminal GFP tag from pcDNA-DEST53 (Gateway)) DQSQKESQCLKSELQAQKEANSRAPTTTMRNLVERLKSQLALKEKQQKALSRALLELRAEMTAAAEERIISATSQKEAHLNVQQIVDRHTRELKTQVEDLNENLLKLKEALKTSKNRENSLTDNLNDLNNELQKKQKAYNKILREKEEIDQENDELKRQIKRLTSGLQGKPLTDNKQSLIEELQRKVKKLENQLEGKVEEVDLKPMKEKNAKEELIRWEEGKKWQAKIEGIRNKLKEKEGEVFTLTKQLNTLKDLFAKADKEKLTLQRKLKT | ~75 | ~100 | 
GFP fusion of CEP290 aa 580-1966 (other, The text says only 'lacking both termini'; also called truncation lacking both termini; construct lacking both the N- and C-termini; not shown: N-terminal GFP tag from pcDNA-DEST53 (Gateway)) TENISQGDRISERKLDLLSLKNMSEAQSKNEFLSRELIEKERDLERSRTVIAKFQNKLKELVEENKQLEEGMKEILQAIKEMQKDPDVKGGETSLIIPSLERLVNAIESKNAEGIFDASLHLKAQVDQLTGRNEELRQELRESRKEAINYSQQLAKANLKIDHLEKETSLLRQSEGSNVVFKGIDLPDGIAPSSASIINSQNEYLIHLLQELENKEKKLKNLEDSLEDYNRKFAVIRHQQSLLYKEYLSEKETWKTESKTIKEEKRKLEDQVQQDAIKVKEYNNLLNALQMDSDEMKKILAENSRKITVLQVNEKSLIRQYTTLVELERQLRKENEKQKNELLSMEAEVCEKIGCLQRFKEMAIFKIAALQKVVDNSVSLSELELANKQYNELTAKYRDILQKDNMLVQRTSNLEHLECENISLKEQVESINKELEITKEKLHTIEQAWEQETKLGNESSMDKAKKSITNSDIVSISKKITMLEMKELNERQRAEHCQKMYEHLRTSLKQMEERNFELETKFAELTKINLDAQKVEQMLRDELADSVSKAVSDADRQRILELEKNEMELKVEVSKLREISDIARRQVEILNAQQQSRDKEVESLRMQLLDYQAQSDEKSLIAKLHQHNVSLQLSEATALGKLESITSKLQKMEAYNLRLEQKLDEKEQALYYARLEGRNRAKHLRQTIQSLRRQFSGALPLAQQEKFSKTMIQLQNDKLKIMQEMKNSQQEHRNMENKTLEMELKLKGLEELISTLKDTKGAQKVINWHMKIEELRLQELKLNRELVKDKEEIKYLNNIISEYERTISSLEEEIVQQNKFHEERQMAWDQREVDLERQLDIFDRQQNEILNAAQKFEEATGSIPDPSLPLPNQLEIALRKIKENIRIILETRATCKSLEEKLKEKESALRLAEQNILSRDKVINELRLRLPATAEREKLIAELGRKEMEPKSHHTLKIAHQTIANMQARLNQKEEVLKKYQRLLEKAREEQREIVKKHEEDLHILHHRLELQADSSLNKFKQTAWDLMKQSPTPVPTNKHFIRLAEMEQTVAEQDDSLSSLLVKLKKVSQDLERQREITELKVKEFENIKLQLQENHEDEVKKVKAEVEDLKYLLDQSQKESQCLKSELQAQKEANSRAPTTTMRNLVERLKSQLALKEKQQKALSRALLELRAEMTAAAEERIISATSQKEAHLNVQQIVDRHTRELKTQVEDLNENLLKLKEALKTSKNRENSLTDNLNDLNNELQKKQKAYNKILREKEEIDQENDELKRQIKRLTSGLQGKPLTDNKQSLIEELQRKVKKLENQLEGKVEEVDLKPMKEKNAKEELIRWEEGKKWQAKIEGIRNKLKEKEGEVFTLTKQLNTLKDLFAKADKEKLTLQRKLKT | ~75 | ~100 | ~80
GFP fusion of CEP290 aa 580-2479 (other, The text says only 'lacking the N-terminus'; also called truncation lacking the N-terminus; C-terminal fragment of CEP290 (aa 580 to 2479); not shown: N-terminal GFP tag from pcDNA-DEST53 (Gateway)) TENISQGDRISERKLDLLSLKNMSEAQSKNEFLSRELIEKERDLERSRTVIAKFQNKLKELVEENKQLEEGMKEILQAIKEMQKDPDVKGGETSLIIPSLERLVNAIESKNAEGIFDASLHLKAQVDQLTGRNEELRQELRESRKEAINYSQQLAKANLKIDHLEKETSLLRQSEGSNVVFKGIDLPDGIAPSSASIINSQNEYLIHLLQELENKEKKLKNLEDSLEDYNRKFAVIRHQQSLLYKEYLSEKETWKTESKTIKEEKRKLEDQVQQDAIKVKEYNNLLNALQMDSDEMKKILAENSRKITVLQVNEKSLIRQYTTLVELERQLRKENEKQKNELLSMEAEVCEKIGCLQRFKEMAIFKIAALQKVVDNSVSLSELELANKQYNELTAKYRDILQKDNMLVQRTSNLEHLECENISLKEQVESINKELEITKEKLHTIEQAWEQETKLGNESSMDKAKKSITNSDIVSISKKITMLEMKELNERQRAEHCQKMYEHLRTSLKQMEERNFELETKFAELTKINLDAQKVEQMLRDELADSVSKAVSDADRQRILELEKNEMELKVEVSKLREISDIARRQVEILNAQQQSRDKEVESLRMQLLDYQAQSDEKSLIAKLHQHNVSLQLSEATALGKLESITSKLQKMEAYNLRLEQKLDEKEQALYYARLEGRNRAKHLRQTIQSLRRQFSGALPLAQQEKFSKTMIQLQNDKLKIMQEMKNSQQEHRNMENKTLEMELKLKGLEELISTLKDTKGAQKVINWHMKIEELRLQELKLNRELVKDKEEIKYLNNIISEYERTISSLEEEIVQQNKFHEERQMAWDQREVDLERQLDIFDRQQNEILNAAQKFEEATGSIPDPSLPLPNQLEIALRKIKENIRIILETRATCKSLEEKLKEKESALRLAEQNILSRDKVINELRLRLPATAEREKLIAELGRKEMEPKSHHTLKIAHQTIANMQARLNQKEEVLKKYQRLLEKAREEQREIVKKHEEDLHILHHRLELQADSSLNKFKQTAWDLMKQSPTPVPTNKHFIRLAEMEQTVAEQDDSLSSLLVKLKKVSQDLERQREITELKVKEFENIKLQLQENHEDEVKKVKAEVEDLKYLLDQSQKESQCLKSELQAQKEANSRAPTTTMRNLVERLKSQLALKEKQQKALSRALLELRAEMTAAAEERIISATSQKEAHLNVQQIVDRHTRELKTQVEDLNENLLKLKEALKTSKNRENSLTDNLNDLNNELQKKQKAYNKILREKEEIDQENDELKRQIKRLTSGLQGKPLTDNKQSLIEELQRKVKKLENQLEGKVEEVDLKPMKEKNAKEELIRWEEGKKWQAKIEGIRNKLKEKEGEVFTLTKQLNTLKDLFAKADKEKLTLQRKLKTTGMTVDQVLGIRALESEKELEELKKRNLDLENDILYMRAHQALPRDSVVEDLHLQNRYLQEKLHALEKQFSKDTYSKPSISGIESDDHCQREQELQKENLKLSSENIELKFQLEQANKDLPRLKNQVRDLKEMCEFLKKEKAEVQRKLGHVRGSGRSGKTIPELEKTIGLMKKVVEKVQRENEQLKKASGILTSEKMANIEQENEKLKAELEKLKAHLGHQLSMHYESKTKGTEKIIAENERLRKELKKETDAAEKLRIAKNNLEILNEKMTVQLEETGKRLQFAESRGPQLEGADSKSWKSIVVTRMYETKLKELETDIAKKNQSITDLKQLVKEATEREQKVNKYNEDLEQQIKILKHVPEGAETEQGLKRELQVLRLANHQLDKEKAELIHQIEANKDQSGAESTIPDADQLKEKIKDLETQLKMSDLEKQHLKEEIKKLKKELENFDPSFFEEIEDLKYNYKEEVKKNILLEEKVKKLSEQLGVELTSPVAASEEFEDEEESPVNFPIY | ~40 | < 50 | ~20
